Data taken from patent publication US20250155457A1 (DIAGNOSTICA STAGO, published 2025).

Assays:
Test in all cases: cell-based or functional assay
[1] = molecular target: T1, exogenous platelet factor 4 (PF4), heparin-modified (PF4/heparin complex) (UniProt P02776 32-101)
T1 sequence (looked up): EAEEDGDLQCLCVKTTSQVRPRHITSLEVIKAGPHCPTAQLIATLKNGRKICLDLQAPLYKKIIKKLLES

[2] = molecular target: T1, exogenous platelet factor 4 (PF4), …; remark: listed apart in the source
[3] = molecular target: T1, exogenous platelet factor 4 (PF4), …; remark: listed apart in the source
[4] = molecular target: T1, exogenous platelet factor 4 (PF4), …; remark: listed apart in the source
[5] = molecular target: T1, exogenous platelet factor 4 (PF4), …; remark: listed apart in the source
[6] = molecular target: T1, exogenous platelet factor 4 (PF4), …; remark: listed apart in the source
[7] = molecular target: T1, exogenous platelet factor 4 (PF4), …; remark: listed apart in the source
[8] = molecular target: T1, exogenous platelet factor 4 (PF4), …; remark: listed apart in the source
[9] = molecular target: T1, exogenous platelet factor 4 (PF4), …; remark: listed apart in the source
[10] = molecular target: T1, exogenous platelet factor 4 (PF4), …; remark: listed apart in the source
[11] = molecular target: T1, exogenous platelet factor 4 (PF4), …; remark: listed apart in the source
[12] = molecular target: T1, exogenous platelet factor 4 (PF4), …; remark: listed apart in the source

B1: chimeric monoclonal antibody 5B9 (antibody, V domains shown)
VH: DVQLQESGPDLVKPSQSLSLTCTVTGYSITSGYSWHWIRQFPGNKLEWMGYIHYSGSTNYNPSLKSRISITRDTSKNQFFLQLNSVTTEDTATYYCARELRLRYFDVWGAGTTVTVSS
VL: EIVLTQSPTTMAASPGEKITITCSASSSISSNYLHWYQQKPGFSPKLLIYRTSNLASGVPARFSGSGSGTSYSLTIGTMEAEDVATYYCQQGSSIPLTFGAGTKLELKR
VS series activation ratio, CD62P labeling, patient 3 whole blood [1]: 94.2 ratio | VS series inhibition ratio, CD62P labeling, patient 3 whole blood (heparin 100 IU/ml) [1]: 0.57 ratio | VS series activation ratio, Annexin V labeling, patient 6 whole blood [2]: 26.5 ratio | VS series inhibition ratio, Annexin V labeling, patient 6 whole blood (heparin 100 IU/ml) [2]: 0.75 ratio | VS series activation ratio, Annexin V labeling, patient 2 whole blood [3]: 11.3 ratio | VS series inhibition ratio, Annexin V labeling, patient 2 whole blood (heparin 100 IU/ml) [3]: 0.65 ratio | VS series activation ratio, Annexin V labeling, patient 5 whole blood [4]: 8.6 ratio | VS series inhibition ratio, Annexin V labeling, patient 5 whole blood (heparin 100 IU/ml) [4]: 0.61 ratio | VS series activation ratio, Annexin V labeling, patient 4 whole blood [5]: 412 ratio | VS series inhibition ratio, Annexin V labeling, patient 4 whole blood (heparin 100 IU/ml) [5]: 0.95 ratio | VS series activation ratio, Annexin V labeling, patient 3 whole blood [6]: 21.7 ratio | VS series inhibition ratio, Annexin V labeling, patient 3 whole blood (heparin 100 IU/ml) [6]: 0.74 ratio | VS series activation ratio, CD62P labeling, patient 1 whole blood (max % x MFI with 5B9 + PF4 + low heparin over basal) [7]: 300 ratio | VS series inhibition ratio, CD62P labeling, patient 1 whole blood (heparin 100 IU/ml) [7]: 0.88 ratio | VS series activation ratio, Annexin V labeling, patient 1 whole blood [8]: 95.9 ratio | VS series inhibition ratio, Annexin V labeling, patient 1 whole blood (heparin 100 IU/ml) [8]: 0.85 ratio | VS series activation ratio, CD62P labeling, patient 4 whole blood [9]: 281 ratio | VS series inhibition ratio, CD62P labeling, patient 4 whole blood (heparin 100 IU/ml) [9]: 0.94 ratio | VS series activation ratio, CD62P labeling, patient 5 whole blood [10]: 52.7 ratio | VS series inhibition ratio, CD62P labeling, patient 5 whole blood (heparin 100 IU/ml) [10]: 0.84 ratio | VS series activation ratio, CD62P labeling, patient 6 whole blood [11]: 117 ratio | VS series inhibition ratio, CD62P labeling, patient 6 whole blood (heparin 100 IU/ml) [11]: 0.94 ratio | VS series activation ratio, CD62P labeling, patient 2 whole blood [12]: 13.2 ratio | VS series inhibition ratio, CD62P labeling, patient 2 whole blood (heparin 100 IU/ml) [12]: 0.9 ratio
